# Source: publication doi:10.1101/2021.01.12.426377 (bioRxiv, 2021)
# T1: FtsA(E14R) (E. coli, UniProt P0ABH0 1-420, E14R)
# T1 sequence: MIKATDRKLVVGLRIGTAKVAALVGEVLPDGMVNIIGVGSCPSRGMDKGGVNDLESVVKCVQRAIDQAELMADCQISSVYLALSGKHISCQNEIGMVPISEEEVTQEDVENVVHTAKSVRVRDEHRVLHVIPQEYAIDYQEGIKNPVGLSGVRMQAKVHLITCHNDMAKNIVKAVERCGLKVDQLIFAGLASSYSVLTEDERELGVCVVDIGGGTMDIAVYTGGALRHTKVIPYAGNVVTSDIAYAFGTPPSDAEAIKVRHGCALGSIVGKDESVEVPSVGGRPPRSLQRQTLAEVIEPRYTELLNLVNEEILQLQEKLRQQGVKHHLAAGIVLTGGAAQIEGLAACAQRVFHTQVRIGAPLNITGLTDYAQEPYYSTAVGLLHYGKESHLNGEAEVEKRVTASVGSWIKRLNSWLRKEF
# How the values were obtained:
# FtsA(E14R) = biological target: T1, FtsA(E14R); test: co-sedimentation
# [1] = biological target: the molecule itself; test: negative-stain transmission electron microscopy
binder,measurement,setting,value
"FtsZ (Escherichia coli, wild type) (natural protein) MFEPMELTNDAVIKVIGVGGGGGNAVEHMVRERIEGVEFFAVNTDAQALRKTAVGQTIQIGSGITKGLGAGANPEVGRNAADEDRDALRAALEGADMVFIAAGMGGGTGTGAAPVVAEVAKDLGILTVAVVTKPFNFEGKKRMAFAEQGITELSKHVDSLITIPNDKLLKVLGRGISLLDAFGAANDVLKGAVQGIAELITRPGLMNVDFADVRTVMSEMGYAMMGSGVASGEDRAEEAAEMAISSPLLEDIDLSGARGVLVNITAGFDLRLDEFETVGNTIRAFASDNATVVIGTSLDPDMNDELRVTVVATGIGMDKRPEITLVTNKQVQQPVMDRYQQHGMAPLTQEQKPVAKVVNDNAPQTAKEPDYLDIPAFLRKQAD",binding result,FtsA(E14R),binds
same,binding result,[1],binds
